Source: paper PMC7356578

What was measured:
[1] = molecular target: KLK1-70Lm (KLK1 with D75, D76 and E77 replaced by arginines) (human); assay: kinetics of protease inhibition (discontinuous assay); 1 µM rKAL preincubated 5 min with LMWH (0-2.5 mg/mL) at room temperature, then 10 nM KLK1-70Lm; kobs plotted against LMWH
[2] = molecular target: KLK1-70Lm (KLK1 with D75, D76 and E77 replaced by arginines) (human); assay: kinetics of protease inhibition (discontinuous assay); pseudo-first-order; 10 nM protease with 100-500 nM kallistatin variant, PBS, 0.1% PEG 8000, 22 ± 1 °C; apparent second-order rate constant kapp from kobs; k2 = kapp × SI
[3] = molecular target: KLK1-99Lm (KLK1 with nine residues of its 99 loop deleted) (human) (UniProt P06870); assay: as above

B1: Recombinant human kallistatin (rKAL), wild type (natural protein)
chain: GSPSLKIAPANADFAFRFYYLIASETPGKNIFFSPLSISAAYAMLSLGACSHSRSQILEGLGFNLTELSESDVHRGFQHLLHTLNLPGHGLETRVGSALFLSHNLKFLAKFLNDTMAVYEAKLFHTNFYDTVGTIQLINDHVKKETRGKIVDLVSELKKDVLMVLVNYIYFKALWEKPFISSRTTPKDFYVDENTTVRVPMMLQDQEHHWYLHDRYLPCSVLRMDYKGDATVFFILPNQGKMREIEEVLTPEMLMRWNNLLRKRNFYKKLELHLPKFSISGSYVLDQILPRLGFTDLFSKWADLSGITKQQKLEASKSFHKATLDVDEAGTEAAAATSFAIKFFSAQTNRHILRFNRPFLVVIFSTSTQSVLFLGKVVDPTKP
fold acceleration of the inhibition rate with LMWH against no heparin [1]: 5 fold
k2 (second-order rate constant) [2]: 1800 M⁻¹ s⁻¹
second-order association rate constant [3]: 200 M⁻¹ s⁻¹
